Experimental data as given in patent US6436691B1, “Chemical compounds” (Zeneca Limited, priority 1995, dated 2002).

Legend:
Type in all cases: biochemical
[1] = Conversion of Hipp-Glu by purified HCPB mutants, 30 minutes, HPLC (Example 17); conditions: 0.5 mM substrate, 30 minutes at 37° C.
Protocol: (§1) Purified mutants of human CPB (D253K; [G251K,D253R]; [G251N,D253R]; [I201S,D253K]; [G251N,D253K]; [Q54R,D145A,D253K]; [G251T,D253K]; [G251S,D253K]; [A248N,G251N,D253K]; [A248S,G251N,D253K] and [S205N,G251N,D253K]—described in Examples 3, 12, 13, 16, 28, 30, 31, 32 and 33) were assayed for their ability to convert hippuryl-L-glutamic acid (Hipp-Glu—Reference Example 1), hippuryl-L-aspartic acid (Hipp-Asp—Reference Example 2) and hippuryl-L-arginine (Sigma Chemical Company—cat no. H6625) to hippuric acid using a HPLC based assay similar to that described in Example 6.
(§2) Samples were incubated for 30 minutes at 37° C. The reactions were terminated by the addition of 500 μl of 40% methanol, 60% distilled water, 0.2% trifluoro acetic acid and the amount of hippuric acid generated was quantitated by HPLC as described in Example 6 but using a mobile phase of 20% methanol, 80% 50 mM phosphate buffer, pH 6.5. Hippuric acid was detected at 230 nm. The results are shown in Table 5 and are expressed as the percentage conversion of substrate into product in 30 minutes at 37° C.

[2] = Conversion of Hipp-Asp by periplasmic shockate of HCPB mutants, 24 h (Example 18); conditions: 24 h at 37° C.
Protocol: (§3) The activity of [G251T,D253K]HCPB was measured using the assay conditions described in Example 17 but using either 50 μl of a neat or 1 in 10 or 1 in 100 dilution of [G251T,D253K]HCPB crude E.coli periplasmic shockate (shockate) sample in place of purified enzyme. Samples were incubated for 24 h at 37° C. […] For other HCPB mutants, the reaction volume was 250 μl and contained 125 μl of neat shockate or 1 in 50 dilution of shockate. The shockate samples were prepared as described in Example 16. The amount of Hippuric acid produced in 24 h was quantified by HPLC as described in Example 17 and the results are shown in Table 6 and are expressed as the percentage conversion of substrate into product in 24 h at 37° C.

[3] = Conversion of Hipp-Asp by purified HCPB mutants, 30 minutes, HPLC (Example 17); conditions: 0.5 mM substrate, 30 minutes at 37° C.
Protocol: as §1, §2

[4] = Conversion of Hipp-Arg by periplasmic shockate of HCPB mutants, 24 h (Example 18); conditions: 24 h at 37° C.
Protocol: as §3

[5] = Conversion of prodrug of Example 24 to drug of Example 25 by HCPB mutants, HPLC (Example 20); conditions: 0.5 mM prodrug of Example 24, 5 minutes at 37° C.
Protocol: The reaction was stopped by adding MeCN (500 μl) plus 0.2% Trifluoroacetic acid. The amount of drug produced was then quantified by HPLC.
HPLC separation was carried out as described in Example 6 except that a mobile phase of 70% MeCN, 30% distilled water and 0.1% trifluoroacetic acid was used to achieve separation of prodrug (retention time 3.8 minutes) and drug (retention time 4.9 minutes) and the compounds were detected at 260 nm. The amount of drug produced was quantified from calibration curves generated with known amounts of drug.
The amount of [Q54R,D145A,D253K]HCPB and [G251T,D253K]HCPB mutants was reduced to 0.75 μg in the reaction mixture.

[6] = Conversion of Hipp-Glu by periplasmic shockate of HCPB mutants, 24 h (Example 18); conditions: for Hipp-Glu (% conversion): 24 h at 37° C.
Protocol: as §3

[7] = Conversion of Hipp-Arg by purified HCPB mutants, 30 minutes, HPLC (Example 17); conditions: 0.5 mM substrate, 30 minutes at 37° C.
Protocol: as §1, §2

[8] = Km and kcat of HCPB mutants with Hipp-Glu (Example 7); conditions: Hipp-Glu 0.25-8.0 mM; pH 7.5; 5 h at 37° C.
Protocol: Hipp-Glu and Hipp-Asp were diluted in range 0.25-8.0 mM and 0.25-5.0 mM respectively in 0.025 M Tris-HCL buffer, pH 7.5. Where necessary substrate samples were adjusted to pH 7.5 with 1M NaOH.
Samples were incubated for 5 h at 37° C. Reactions were terminated by the addition of 500 μl methanol/distilled water (80/20) containing 0.2% TFA. The amount of hippuric acid produced was quantified by HPLC as described in Example 6.
Km and Vmax values were calculated using the ENZFITTER software programme (Biosoft, Perkin Elmer).

[9] = Activity against Hipp-Asp in crude E. coli periplasmic shockate relative to D253K or D253R HCPB (Example 16)
From the text: (§4) A number of other mutant HCPBs have been constructed in a similar manner to the methods described in Reference Examples 7 and 8, and Examples 12, 13, 14 and 15. In each case oligos were constructed to introduce specific changes in the gene sequence by methods similar to those described above. In some cases additional mutations were identified upon complete sequencing of the mutated gene, and these were presumably introduced during the PCR reactions. Mutants with enzyme activity against substrate analogues (see Example 18 below) have been identified, and examples of these are given in Table 4 below. […] This material is subsequently referred to as periplasmic shockate or shockate and is prepared by the following procedure.
(§5) 1. A single colony was used to inoculate 75 ml of L-broth nutrient media containing 10 μg/ml tetracycline and arabinose to a final concentration of 0.01% (w/v). Incubation was performed at 20° C. with shaking (250 rpm) for about 60 hours.
(§6) 2. The cells were then harvested by centrifugation at 4° C.
(§7) 3. The cell pellet was re-suspended in 300 micro-liters of 20% sucrose (w/v) containing 1 mM EDTA in 200 mM Tris-HCl at pH7.5, and incubated at room-temperature for 15 minutes.
(§8) 4. Periplasmic shockate was generated by the addition of 450 micro-liters of distilled water, and a further incubation at room-temperature for 15 minutes.
(§9) 5. Cellular remains were removed by centrifugation, and the supernatant assayed for enzyme activity as soon as possible after preparation and kept at 4° C. prior to assay.
as §3

[10] = Activity against Hipp-Glu in crude E. coli periplasmic shockate relative to D253K or D253R HCPB (Example 16)
From the text: as §4, §5, §6, §7, §8, §9
The activity of [G251T,D253K]HCPB was measured using the assay conditions described in Example 17 but using either 50 μl of a neat or 1 in 10 or 1 in 100 dilution of [G251T,D253K]HCPB crude E.coli periplasmic shockate (shockate) sample in place of purified enzyme. Samples were incubated for 24 h at 37° C. […] The amount of Hippuric acid produced in 24 h was quantified by HPLC as described in Example 17 and the results are shown in Table 6 and are expressed as the percentage conversion of substrate into product in 24 h at 37° C.

[11] = shockate concentration in reaction mixture 1 %
[12] = shockate concentration in reaction mixture 10 %
[13] = shockate concentration in reaction mixture 50 %

B1: [G251T,D253K]: HCPB mutant with G251T and D253K, (His)6-c-myc tag (protein, UniProt P15086 111-417, looked up, variant G251T D253K)
Carboxypeptidase B: ATGHSYEKYNKWETIEAWTQQVATENPALISRSVIGTTFEGRAIYLLKVGKAGQNKPAIFMDCGFHAREWISPAFCQWFVREAVRTYGREIQVTELLDKLDFYVLPVLNIDGYIYTWTKSRFWRKTRSTHTGSSCIGTDPNRNFDAGWCEIGASRNPCDETYCGPAAESEKETKALADFIRNKLSSIKAYLTIHSYSQMMIYPYSYAYKLGENNAELNALAKATVKELASLHGTKYTYGPGATTIYPAAGTSKDWAYDQGIRYSFTFELRDTGRYGFLLPESQIRATCEETFLAIKYVASYVLEHLY
modifications: (His)6-c-myc tag
Hipp-Glu (% conversion) ([1]; enzyme 0.02 μg/ml): 8.2%
Hipp-Glu (% conversion) ([1]; enzyme 25 μg/ml): 100%
Hipp-Asp (% conversion) [2, 11]: 0%
Hipp-Asp (% conversion) [2, 12]: 2.6%
Hipp-Asp (% conversion) ([3]; enzyme 0.02 μg/ml): 0%
Hipp-Asp (% conversion) ([3]; enzyme 25 μg/ml): 14%
Hipp-Arg (% conversion) [4, 11]: 0.1%
Hipp-Arg (% conversion) [4, 12]: 0.8%
Prodrug Hydrolysis (%) ([5]; enzyme 1.5 μg/ml): 36.0%
Hipp-Glu (% conversion) ([6]; shockate concentration in reaction mixture 0.1 %): 60%
Hipp-Glu (% conversion) [6, 11]: 93%
Hipp-Glu (% conversion) [6, 12]: 100%
fold more active against Hipp-Glu compared to Hipp-Arg ([6]; shockate samples, 24 h): over 900 fold
fold more active than D253K at converting Hipp-Glu to hippuric acid ([6]; shockate samples, 24 h): at least 50 fold
Hipp-Arg (% conversion) ([7]; enzyme 0.02 μg/ml): 0%
Hipp-Arg (% conversion) ([7]; enzyme 25 μg/ml): 5.2%
Km [8]: 1.1 mM
kcat, Hipp-Glu [8]: 75 s⁻¹

B2: [I201S, D253K]: HCPB mutant with I201S and D253K (protein, UniProt P15086 111-417, looked up, variant I201S D253K)
Carboxypeptidase B: ATGHSYEKYNKWETIEAWTQQVATENPALISRSVIGTTFEGRAIYLLKVGKAGQNKPAIFMDCGFHAREWISPAFCQWFVREAVRTYGREIQVTELLDKLDFYVLPVLNIDGYIYTWTKSRFWRKTRSTHTGSSCIGTDPNRNFDAGWCEIGASRNPCDETYCGPAAESEKETKALADFIRNKLSSIKAYLTIHSYSQMMSYPYSYAYKLGENNAELNALAKATVKELASLHGTKYTYGPGATTIYPAAGGSKDWAYDQGIRYSFTFELRDTGRYGFLLPESQIRATCEETFLAIKYVASYVLEHLY
Hipp-Glu (% conversion) ([1]; enzyme 2.5 μg/ml): 4.6%
Hipp-Glu (% conversion) ([1]; enzyme 25 μg/ml): 27.8%
Hipp-Asp (% conversion) ([3]; enzyme 2.5 μg/ml): 5.8%
Hipp-Asp (% conversion) ([3]; enzyme 25 μg/ml): 33.1%
Prodrug Hydrolysis (%) ([5]; enzyme 15 μg/ml): 72.6%
Hipp-Asp, activity relative to D253K HCPB or D253R HCPB [9]: b (activity equivalent to D253R HCPB)
Hipp-Arg (% conversion) ([7]; enzyme 2.5 μg/ml): 0%
Hipp-Arg (% conversion) ([7]; enzyme 25 μg/ml): 0%
Hipp-Glu, activity relative to D253K HCPB or D253R HCPB [10]: NAD (No activity detected)

B3: [G251S, D253K]: HCPB mutant with G251S and D253K, (His)6-c-myc tag (protein, UniProt P15086 111-417, looked up, variant G251S D253K)
Carboxypeptidase B: ATGHSYEKYNKWETIEAWTQQVATENPALISRSVIGTTFEGRAIYLLKVGKAGQNKPAIFMDCGFHAREWISPAFCQWFVREAVRTYGREIQVTELLDKLDFYVLPVLNIDGYIYTWTKSRFWRKTRSTHTGSSCIGTDPNRNFDAGWCEIGASRNPCDETYCGPAAESEKETKALADFIRNKLSSIKAYLTIHSYSQMMIYPYSYAYKLGENNAELNALAKATVKELASLHGTKYTYGPGATTIYPAAGSSKDWAYDQGIRYSFTFELRDTGRYGFLLPESQIRATCEETFLAIKYVASYVLEHLY
modifications: (His)6-c-myc tag
Hipp-Glu (% conversion) ([1]; enzyme 0.25 μg/ml): 14.5%
Hipp-Glu (% conversion) ([1]; enzyme 25 μg/ml): 100%
Hipp-Asp (% conversion) [2, 13]: 1.6%
Hipp-Asp (% conversion) ([3]; enzyme 0.25 μg/ml): 0%
Hipp-Asp (% conversion) ([3]; enzyme 25 μg/ml): 2.8%
Hipp-Glu (% conversion) [6, 11]: 5%
Hipp-Glu (% conversion) [6, 13]: 93.8%
Hipp-Arg (% conversion) ([7]; enzyme 0.25 μg/ml): 0%
Hipp-Arg (% conversion) ([7]; enzyme 25 μg/ml): 0.8%
Hipp-Glu, activity relative to D253K HCPB or D253R HCPB [10]: e (>10 times the activity of D253K HCPB)

B4: [I201T, D253R]: HCPB mutant with I201T and D253R, (His)6-c-myc tag (protein, UniProt P15086 111-417, looked up, variant I201T D253R)
Carboxypeptidase B: ATGHSYEKYNKWETIEAWTQQVATENPALISRSVIGTTFEGRAIYLLKVGKAGQNKPAIFMDCGFHAREWISPAFCQWFVREAVRTYGREIQVTELLDKLDFYVLPVLNIDGYIYTWTKSRFWRKTRSTHTGSSCIGTDPNRNFDAGWCEIGASRNPCDETYCGPAAESEKETKALADFIRNKLSSIKAYLTIHSYSQMMTYPYSYAYKLGENNAELNALAKATVKELASLHGTKYTYGPGATTIYPAAGGSRDWAYDQGIRYSFTFELRDTGRYGFLLPESQIRATCEETFLAIKYVASYVLEHLY
modifications: (His)6-c-myc tag
Hipp-Asp, activity relative to D253K HCPB or D253R HCPB [9]: b (activity equivalent to D253R HCPB)
Hipp-Glu, activity relative to D253K HCPB or D253R HCPB [10]: b (activity equivalent to D253R HCPB)
